According to the supplement of paper PMC7877785:
± gives the uncertainty stated by the source.

Test: self-splicing fitness, log relative to wild type (ln ratio); higher = more splicing; Tetrahymena group I intron in knt gene, E. coli kanamycin selection, DiMSum; sequences stand for … in CUCUCU…GGAGGGAAAAGUUAUCAGGCAUGCACCUGGUAGCUAGUCUUUAAACCAAUAGAUUGCAUCGGUUUAAAAGGCAAGACCGUCAAAUUGCGGGAAAGGGGUCAACAGCCGUUCAGUACCAAGUCUCAGGGGAAACUUUGAGAUGGCCUUGCAAAGGGUAUGGUAAUAAGCUGACGGACAUGGUCCUAACCACGCAGCCAAGUCCUAAGUCAACAGAUCUUCUGUUGAUAUGGAUGCAGUUCACAGACUAAAUGUCGGUCGGGGAAGAUGUAUUCUUCUCAUAAGAUAUAGUCGGACCUCUCCUUAAUGGGAGCUAGCGGAUGAAGUGAUGCAACACUGGAGCCGCUGGGAACUAAUUUGUAUGCGAAAGUAUAUUGAUUAGUUUUGGAGUACUCGUGGUCG
In short: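 DiMSum derived fitness as the error-weighted combination of fold changes across replicates, kanamycin versus no kanamycin, normalised to wild type. E. coli BL21(DE3) held the library, which randomised all eight P1ex-region intron nucleotides within the knt kanamycin-resistance gene on pET-22b(+). Six replicate transformations grew overnight at 37°C or 30°C on LB agar with or without 25 μg/mL kanamycin, also containing 100 μg/mL carbenicillin, 50 μM IPTG and 0.2% rhamnose, and pooled colonies were amplicon-sequenced on an Illumina HiSeq 2500.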

Row | Sequence | self-splicing fitness (ln) (30 °C) | self-splicing fitness (ln) (37 °C)
1 | UCACAGCAAUAUUACGGACA | -1.22 ± 0.099 | -0.687 ± 0.099
2 | CAGCAGCAAUAUUACGUAAC | -4.17 ± 0.39 | -2.88 ± 0.32
3 | CGACAGCAAUAUUACGUCGA | -3.04 ± 0.18 | -2.51 ± 0.15
4 | CGAUAGCAAUAUUACGCCUG | -0.681 ± 0.15 | 0.308 ± 0.11
5 | GGGUAGCAAUAUUACGCGCA | -0.0848 ± 0.13 | -0.0359 ± 0.14
6 | GUUUAGCAAUAUUACGUCGG | -2.06 ± 0.18 | -2.12 ± 0.21
7 | GUAAAGCAAUAUUACGGUAU | -0.495 ± 0.059 | 0.118 ± 0.084
8 | CUCGAGCAAUAUUACGCGGU | -4.23 ± 0.46 | -1.97 ± 0.27
9 | CCCCAGCAAUAUUACGCAGA | -4.17 ± 0.28 | -3.54 ± 0.21
10 | GUUAAGCAAUAUUACGGUAC | -1.7 ± 0.17 | -1.33 ± 0.22
11 | GUCCAGCAAUAUUACGCACU | -1.58 ± 0.082 | 0.818 ± 0.11
12 | GUCGAGCAAUAUUACGAGGG | – | -1.04 ± 0.21
13 | UUCUAGCAAUAUUACGGCAU | -1.81 ± 0.16 | -1.58 ± 0.19
14 | ACCGAGCAAUAUUACGAACC | -2.9 ± 0.39 | –
15 | GAGCAGCAAUAUUACGAUAC | -1.61 ± 0.12 | -1.45 ± 0.15
16 | GCGUAGCAAUAUUACGGUGU | -3.33 ± 0.21 | -1.48 ± 0.14
17 | UGUUAGCAAUAUUACGAGAG | -3.33 ± 0.33 | -3.15 ± 0.27
18 | GUCCAGCAAUAUUACGGAAC | -1.88 ± 0.12 | -0.802 ± 0.11
19 | CACUAGCAAUAUUACGCGCU | -3.62 ± 0.16 | -2.09 ± 0.14
20 | CAGCAGCAAUAUUACGGGUU | -4.98 ± 0.26 | -1.6 ± 0.13
21 | GUUGAGCAAUAUUACGUCUA | -2.72 ± 0.46 | -0.927 ± 0.24
22 | UUUUAGCAAUAUUACGGCCC | – | -1.14 ± 0.42
23 | AUACAGCAAUAUUACGCCGU | -1.34 ± 0.099 | -0.0561 ± 0.1
24 | GGUAAGCAAUAUUACGGGGG | -3.98 ± 0.46 | -3.13 ± 0.2
25 | GGAAAGCAAUAUUACGCAGU | -2.78 ± 0.13 | -1.47 ± 0.12

Row | Sequence | self-splicing fitness (ln) (30 °C) | self-splicing fitness (ln) (37 °C)
26 | AAUUAGCAAUAUUACGACGC | -1.08 ± 0.14 | -0.792 ± 0.13
27 | CGCAAGCAAUAUUACGCUUU | -3.44 ± 0.21 | -2.34 ± 0.21
28 | CUGGAGCAAUAUUACGUUAA | -3.18 ± 0.37 | -2.05 ± 0.24
29 | GUAUAGCAAUAUUACGACGU | -0.443 ± 0.069 | 0.436 ± 0.092
30 | ACAAAGCAAUAUUACGUCUC | -4.03 ± 0.18 | -2.09 ± 0.14
31 | CGUAAGCAAUAUUACGACAC | -2.84 ± 0.14 | -2.55 ± 0.16
32 | UUAUAGCAAUAUUACGCACU | -1.15 ± 0.16 | -0.214 ± 0.21
33 | GAGGAGCAAUAUUACGCUUU | – | -2.06 ± 0.41
34 | AUGCAGCAAUAUUACGUAGA | -1.71 ± 0.079 | -1.09 ± 0.1
35 | AAUGAGCAAUAUUACGAGUU | -3.21 ± 0.28 | -1.8 ± 0.31
36 | CAGCAGCAAUAUUACGGCAU | -0.874 ± 0.074 | -0.81 ± 0.096
37 | AGCCAGCAAUAUUACGCCUA | -2.14 ± 0.25 | -1.07 ± 0.23
38 | ACCAAGCAAUAUUACGGGCA | -0.376 ± 0.06 | -0.0824 ± 0.072
39 | UGCGAGCAAUAUUACGUUUG | -3.45 ± 0.21 | -2.88 ± 0.21
40 | UGUUAGCAAUAUUACGUGCC | -2.05 ± 0.17 | -0.583 ± 0.21
41 | CCCGAGCAAUAUUACGACGG | -3.44 ± 0.17 | -3.49 ± 0.27
42 | AGGCAGCAAUAUUACGACGU | -0.0258 ± 0.11 | 0.539 ± 0.087
43 | ACUAAGCAAUAUUACGCUUU | -2.34 ± 0.17 | -1.97 ± 0.18
44 | UUUAAGCAAUAUUACGCAGG | -0.857 ± 0.14 | -0.494 ± 0.2
45 | GCUGAGCAAUAUUACGGGGG | -2.59 ± 0.2 | -1.8 ± 0.21
46 | UGGGAGCAAUAUUACGGGAA | -2.98 ± 0.3 | -1.87 ± 0.24
47 | CGUAAGCAAUAUUACGUUUG | -1.2 ± 0.08 | -0.438 ± 0.1
48 | AUUUAGCAAUAUUACGCAUU | -1.7 ± 0.11 | -0.617 ± 0.13
49 | AGGAAGCAAUAUUACGUACU | -1.76 ± 0.12 | -0.989 ± 0.19
